Measurements reported in IntAct's records for PubMed 25893917.

B1: Twist-related protein 1 (Mus musculus), P26687 (parent)
chain: MMQDVSSSPVSPADDSLSNSEEEPDRQQPASGKRGARKRRSSRRSAGGSAGPGGATGGGIGGGDEPGSPAQGKRGKKSAGGGGGGGAGGGGGGGGGSSSGGGSPQSYEELQTQRVMANVRERQRTQSLNEAFAALRKIIPTLPSDKLSKIQTLKLAARYIDFLYQVLQSDELDSKMASCSYVAHERLSYAFSVWRMEGAWSMSASH
partner: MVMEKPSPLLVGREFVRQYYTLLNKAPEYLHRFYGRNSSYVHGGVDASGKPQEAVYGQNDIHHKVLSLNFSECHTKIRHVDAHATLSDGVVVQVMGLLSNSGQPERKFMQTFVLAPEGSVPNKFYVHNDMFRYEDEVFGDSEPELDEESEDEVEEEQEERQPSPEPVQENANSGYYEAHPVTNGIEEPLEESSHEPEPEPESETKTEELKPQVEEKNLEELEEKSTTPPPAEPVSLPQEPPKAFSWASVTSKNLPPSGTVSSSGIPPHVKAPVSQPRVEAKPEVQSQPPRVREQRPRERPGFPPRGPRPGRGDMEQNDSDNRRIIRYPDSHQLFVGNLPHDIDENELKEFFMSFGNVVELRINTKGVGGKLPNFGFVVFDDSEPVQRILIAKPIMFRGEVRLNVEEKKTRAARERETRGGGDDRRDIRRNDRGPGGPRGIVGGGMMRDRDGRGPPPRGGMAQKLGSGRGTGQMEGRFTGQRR

Variants of: B1
Conditions: with G3BP2, Q9UN86

effect of a mutation on the interaction	Variant
decreasing interaction strength	Y107E
